In patent US20220064329A1 (Novo Nordisk, published 2022):
Residue numbers refer to the chain shown, from its start.

Key:
Assay in all cases: SPR, ratio of KD to KD of WT
[1] = molecular target: T1, FVII(a) variant Y118A (human, UniProt P08709 61-466)
T1 construct: hFVII alanine variant in cell culture supernatant
T1 sequence: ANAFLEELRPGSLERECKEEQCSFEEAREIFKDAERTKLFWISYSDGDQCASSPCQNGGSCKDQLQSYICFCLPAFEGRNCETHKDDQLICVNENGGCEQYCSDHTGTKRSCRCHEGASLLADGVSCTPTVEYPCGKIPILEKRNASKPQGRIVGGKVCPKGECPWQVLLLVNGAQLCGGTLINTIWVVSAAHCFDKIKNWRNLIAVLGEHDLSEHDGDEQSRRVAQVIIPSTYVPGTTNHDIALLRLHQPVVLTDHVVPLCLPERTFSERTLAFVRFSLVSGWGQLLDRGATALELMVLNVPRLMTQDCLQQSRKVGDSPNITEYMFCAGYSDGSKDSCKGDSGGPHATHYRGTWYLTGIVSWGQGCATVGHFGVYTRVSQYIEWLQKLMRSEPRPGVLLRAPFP
Method: (§1) The running buffer was prepared by diluting 10-fold the 10×HBS-P buffer (supplied by GE Healthcare) and supplemented with 1 mg/ml BSA and 5 mM CaCl2 to give 10 mM HEPES, 150 mM NaCl, 0.05% v/v Polysorbate 20, pH 7.4, 5 mM CaCl2, 1 mg/ml bovine serum albumin (BSA). […] Regeneration of the chip was achieved using 10 mM HEPES, 150 mM NaCl, 20 mM EDTA, 0.05 v/v Polysorbate 20, pH 7.4. Binding data were analysed according to a 1:1 Kinetic model and steady state analysis using BiaEvaluation 4.1 supplied by the manufacturer (Biacore AB, Uppsala, Sweden). Wherever possible, ka, kd and KD values from 1:1 kinetic fitting model are reported. […] An amino acid residue is considered a hot-spot residue if substitution of that amino acid residue with alanine results in an affinity reduction of ten (10) fold or more relative to the wild type.

[2] = molecular target: T2, FVII(a) variant R113A (human, UniProt P08709 61-466)
T2 construct: hFVII alanine variant in cell culture supernatant
T2 sequence: T1 sequence with R113A, A118Y
Method: as §1

[3] = molecular target: T3, FVII(a) variant V131A (human, UniProt P08709 61-466)
T3 construct: hFVII alanine variant in cell culture supernatant
T3 sequence: T1 sequence with A118Y, V131A
Method: as §1

[4] = molecular target: T4, FVII(a) variant L120A (human, UniProt P08709 61-466)
T4 construct: hFVII alanine variant in cell culture supernatant
T4 sequence: T1 sequence with A118Y, L120A
Method: as §1

[5] = molecular target: T5, FVII(a) variant E265A (human, UniProt P08709 61-466)
T5 construct: hFVII alanine variant in cell culture supernatant
T5 sequence: T1 sequence with A118Y, E265A
Method: as §1

Fold diff (Variant/WT) [1]: 4.9 fold
Fold diff (Variant/WT) [2]: 1 fold
Fold diff (Variant/WT) [3]: 17.1 fold
Fold diff (Variant/WT) [4]: 2 fold
Fold diff (Variant/WT) [5]: 3.2 fold
B1: mAb0842(OA) (antibody, human IgG4 S228P, kappa)
heavy: QVQLQESGPGLVKPSQTLSLTCTVSGYSISSDSAWSWIRQPPGKGLEWIGYIQYSGSTNYNPSLKSRVTISRDTSKNQFSLKLSSVTAADTAVYYCARSVNYYGNSFAVGYWGQGTLVTVSSASTKGPSVFPLAPCSRSTSESTAALGCLVKDYFPEPVTVSWNSGALTSGVHTFPAVLQSSGLYSLSSVVTVPSSSLGTKTYTCNVDHKPSNTKVDKRVESKYGPPCPPCPAPEFLGGPSVFLFPPKPKDTLMISRTPEVTCVVVDVSQEDPEVQFNWYVDGVEVHNAKTKPREEQFNSTYRVVSVLTVLHQDWLNGKEYKCKVSNKGLPSSIEKTISKAKGQPREPQVYTLPPSQEEMTKNQVSLSCAVKGFYPSDIAVEWESNGQPENNYKTTPPVLDSDGSFFLVSRLTVDKSRWQEGNVFSCSVMHEALHNHYTQKSLSLSLGK
light: EIVLTQSPATLSLSPGERATLSCRASQGISDYLHWYQQKPGEAPRLLIKYTSQPATGIPARFSGSGSGTDFTLTISSLEPEDFAVYYCQNGHSFPLTFGQGTKLEIKRTVAAPSVFIFPPSDEQLKSGTASVVCLLNNFYPREAKVQWKVDNALQSGNSQESVTEQDSKDSTYSLSSTLTLSKADYEKHKVYACEVTHQGLSSPVTKSFNRGEC
chain: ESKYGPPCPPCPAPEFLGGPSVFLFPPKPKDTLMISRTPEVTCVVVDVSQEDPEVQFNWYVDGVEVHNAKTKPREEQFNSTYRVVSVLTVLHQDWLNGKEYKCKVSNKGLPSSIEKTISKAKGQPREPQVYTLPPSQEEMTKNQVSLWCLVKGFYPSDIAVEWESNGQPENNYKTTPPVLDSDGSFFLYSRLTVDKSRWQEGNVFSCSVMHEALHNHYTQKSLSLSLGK
notes: also called monovalent humanized 11F2 antibody; one-armed anti-FVII(a) antibody
